Test system: peptide library, one residue held at a place counted from the S/T acceptor
Experiment: relative phosphorylation of the sub-library (ratio to the mean residue at this position); higher = residue favoured
Details: human
Procedure, shortened: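 Each biotinylated degenerate peptide sub-library fixed one residue at one position around a central Ser/Thr and was incubated with a purified recombinant kinase, a human or orthologue construct, in 384-well plates. The 90 min reactions, under kinase-specific conditions, contained 50 μM peptide and 50 μM ATP spiked with γ-32P-ATP. Phosphorylation was read by phosphorimaging spots on streptavidin membranes and quantifying them by densitometry. Relative sub-library phosphorylation expresses each value as a ratio to the mean residue at that position.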

Chain of NEK8, construct: aa1-322 (Q86SG6 1-322, looked up): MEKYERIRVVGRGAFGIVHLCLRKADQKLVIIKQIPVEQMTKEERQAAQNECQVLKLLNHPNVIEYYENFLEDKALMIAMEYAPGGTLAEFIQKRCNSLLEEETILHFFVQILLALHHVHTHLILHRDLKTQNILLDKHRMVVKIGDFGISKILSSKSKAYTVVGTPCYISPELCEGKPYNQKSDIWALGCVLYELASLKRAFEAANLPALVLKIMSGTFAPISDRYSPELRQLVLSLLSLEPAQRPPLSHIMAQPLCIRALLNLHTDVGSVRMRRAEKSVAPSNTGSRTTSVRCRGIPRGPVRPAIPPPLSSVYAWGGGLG
Chain of SIK2, construct: Full length (Q9H0K1 whole entry, looked up): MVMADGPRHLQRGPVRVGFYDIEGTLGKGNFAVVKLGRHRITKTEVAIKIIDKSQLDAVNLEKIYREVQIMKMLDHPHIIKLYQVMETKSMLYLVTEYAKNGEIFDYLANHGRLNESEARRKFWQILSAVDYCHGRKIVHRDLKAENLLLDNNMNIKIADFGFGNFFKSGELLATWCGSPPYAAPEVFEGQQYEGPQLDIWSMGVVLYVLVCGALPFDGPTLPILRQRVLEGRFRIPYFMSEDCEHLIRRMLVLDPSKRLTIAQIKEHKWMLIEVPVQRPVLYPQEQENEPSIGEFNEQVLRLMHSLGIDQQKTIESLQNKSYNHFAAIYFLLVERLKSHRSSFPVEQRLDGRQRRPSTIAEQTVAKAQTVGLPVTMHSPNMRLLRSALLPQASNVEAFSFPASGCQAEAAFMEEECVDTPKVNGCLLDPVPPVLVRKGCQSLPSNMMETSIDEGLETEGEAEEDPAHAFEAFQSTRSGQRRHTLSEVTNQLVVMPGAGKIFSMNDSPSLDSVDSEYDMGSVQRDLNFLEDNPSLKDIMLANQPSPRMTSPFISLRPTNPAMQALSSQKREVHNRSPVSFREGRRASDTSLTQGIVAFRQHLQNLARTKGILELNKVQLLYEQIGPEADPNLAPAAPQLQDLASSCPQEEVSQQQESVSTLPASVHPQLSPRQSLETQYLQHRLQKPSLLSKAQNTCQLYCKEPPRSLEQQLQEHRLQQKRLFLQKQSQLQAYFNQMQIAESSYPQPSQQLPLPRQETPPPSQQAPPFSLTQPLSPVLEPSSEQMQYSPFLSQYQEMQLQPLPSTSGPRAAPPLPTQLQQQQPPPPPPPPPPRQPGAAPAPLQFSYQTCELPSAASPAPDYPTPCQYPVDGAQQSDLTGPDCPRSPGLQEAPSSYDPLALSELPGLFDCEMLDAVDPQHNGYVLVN
Chain of ACVR1, construct: aa175-end (Q04771 175-509, looked up): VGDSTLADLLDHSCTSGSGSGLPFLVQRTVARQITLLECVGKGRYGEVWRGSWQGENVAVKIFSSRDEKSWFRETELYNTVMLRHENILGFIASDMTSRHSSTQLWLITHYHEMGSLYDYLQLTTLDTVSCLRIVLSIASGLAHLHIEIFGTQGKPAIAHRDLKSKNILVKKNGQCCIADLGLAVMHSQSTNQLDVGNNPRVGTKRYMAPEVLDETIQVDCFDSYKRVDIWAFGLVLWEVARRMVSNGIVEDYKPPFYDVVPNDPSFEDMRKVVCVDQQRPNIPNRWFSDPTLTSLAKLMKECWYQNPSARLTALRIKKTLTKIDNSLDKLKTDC
Chain of ATM, construct: Full length (Q13315 whole entry, looked up): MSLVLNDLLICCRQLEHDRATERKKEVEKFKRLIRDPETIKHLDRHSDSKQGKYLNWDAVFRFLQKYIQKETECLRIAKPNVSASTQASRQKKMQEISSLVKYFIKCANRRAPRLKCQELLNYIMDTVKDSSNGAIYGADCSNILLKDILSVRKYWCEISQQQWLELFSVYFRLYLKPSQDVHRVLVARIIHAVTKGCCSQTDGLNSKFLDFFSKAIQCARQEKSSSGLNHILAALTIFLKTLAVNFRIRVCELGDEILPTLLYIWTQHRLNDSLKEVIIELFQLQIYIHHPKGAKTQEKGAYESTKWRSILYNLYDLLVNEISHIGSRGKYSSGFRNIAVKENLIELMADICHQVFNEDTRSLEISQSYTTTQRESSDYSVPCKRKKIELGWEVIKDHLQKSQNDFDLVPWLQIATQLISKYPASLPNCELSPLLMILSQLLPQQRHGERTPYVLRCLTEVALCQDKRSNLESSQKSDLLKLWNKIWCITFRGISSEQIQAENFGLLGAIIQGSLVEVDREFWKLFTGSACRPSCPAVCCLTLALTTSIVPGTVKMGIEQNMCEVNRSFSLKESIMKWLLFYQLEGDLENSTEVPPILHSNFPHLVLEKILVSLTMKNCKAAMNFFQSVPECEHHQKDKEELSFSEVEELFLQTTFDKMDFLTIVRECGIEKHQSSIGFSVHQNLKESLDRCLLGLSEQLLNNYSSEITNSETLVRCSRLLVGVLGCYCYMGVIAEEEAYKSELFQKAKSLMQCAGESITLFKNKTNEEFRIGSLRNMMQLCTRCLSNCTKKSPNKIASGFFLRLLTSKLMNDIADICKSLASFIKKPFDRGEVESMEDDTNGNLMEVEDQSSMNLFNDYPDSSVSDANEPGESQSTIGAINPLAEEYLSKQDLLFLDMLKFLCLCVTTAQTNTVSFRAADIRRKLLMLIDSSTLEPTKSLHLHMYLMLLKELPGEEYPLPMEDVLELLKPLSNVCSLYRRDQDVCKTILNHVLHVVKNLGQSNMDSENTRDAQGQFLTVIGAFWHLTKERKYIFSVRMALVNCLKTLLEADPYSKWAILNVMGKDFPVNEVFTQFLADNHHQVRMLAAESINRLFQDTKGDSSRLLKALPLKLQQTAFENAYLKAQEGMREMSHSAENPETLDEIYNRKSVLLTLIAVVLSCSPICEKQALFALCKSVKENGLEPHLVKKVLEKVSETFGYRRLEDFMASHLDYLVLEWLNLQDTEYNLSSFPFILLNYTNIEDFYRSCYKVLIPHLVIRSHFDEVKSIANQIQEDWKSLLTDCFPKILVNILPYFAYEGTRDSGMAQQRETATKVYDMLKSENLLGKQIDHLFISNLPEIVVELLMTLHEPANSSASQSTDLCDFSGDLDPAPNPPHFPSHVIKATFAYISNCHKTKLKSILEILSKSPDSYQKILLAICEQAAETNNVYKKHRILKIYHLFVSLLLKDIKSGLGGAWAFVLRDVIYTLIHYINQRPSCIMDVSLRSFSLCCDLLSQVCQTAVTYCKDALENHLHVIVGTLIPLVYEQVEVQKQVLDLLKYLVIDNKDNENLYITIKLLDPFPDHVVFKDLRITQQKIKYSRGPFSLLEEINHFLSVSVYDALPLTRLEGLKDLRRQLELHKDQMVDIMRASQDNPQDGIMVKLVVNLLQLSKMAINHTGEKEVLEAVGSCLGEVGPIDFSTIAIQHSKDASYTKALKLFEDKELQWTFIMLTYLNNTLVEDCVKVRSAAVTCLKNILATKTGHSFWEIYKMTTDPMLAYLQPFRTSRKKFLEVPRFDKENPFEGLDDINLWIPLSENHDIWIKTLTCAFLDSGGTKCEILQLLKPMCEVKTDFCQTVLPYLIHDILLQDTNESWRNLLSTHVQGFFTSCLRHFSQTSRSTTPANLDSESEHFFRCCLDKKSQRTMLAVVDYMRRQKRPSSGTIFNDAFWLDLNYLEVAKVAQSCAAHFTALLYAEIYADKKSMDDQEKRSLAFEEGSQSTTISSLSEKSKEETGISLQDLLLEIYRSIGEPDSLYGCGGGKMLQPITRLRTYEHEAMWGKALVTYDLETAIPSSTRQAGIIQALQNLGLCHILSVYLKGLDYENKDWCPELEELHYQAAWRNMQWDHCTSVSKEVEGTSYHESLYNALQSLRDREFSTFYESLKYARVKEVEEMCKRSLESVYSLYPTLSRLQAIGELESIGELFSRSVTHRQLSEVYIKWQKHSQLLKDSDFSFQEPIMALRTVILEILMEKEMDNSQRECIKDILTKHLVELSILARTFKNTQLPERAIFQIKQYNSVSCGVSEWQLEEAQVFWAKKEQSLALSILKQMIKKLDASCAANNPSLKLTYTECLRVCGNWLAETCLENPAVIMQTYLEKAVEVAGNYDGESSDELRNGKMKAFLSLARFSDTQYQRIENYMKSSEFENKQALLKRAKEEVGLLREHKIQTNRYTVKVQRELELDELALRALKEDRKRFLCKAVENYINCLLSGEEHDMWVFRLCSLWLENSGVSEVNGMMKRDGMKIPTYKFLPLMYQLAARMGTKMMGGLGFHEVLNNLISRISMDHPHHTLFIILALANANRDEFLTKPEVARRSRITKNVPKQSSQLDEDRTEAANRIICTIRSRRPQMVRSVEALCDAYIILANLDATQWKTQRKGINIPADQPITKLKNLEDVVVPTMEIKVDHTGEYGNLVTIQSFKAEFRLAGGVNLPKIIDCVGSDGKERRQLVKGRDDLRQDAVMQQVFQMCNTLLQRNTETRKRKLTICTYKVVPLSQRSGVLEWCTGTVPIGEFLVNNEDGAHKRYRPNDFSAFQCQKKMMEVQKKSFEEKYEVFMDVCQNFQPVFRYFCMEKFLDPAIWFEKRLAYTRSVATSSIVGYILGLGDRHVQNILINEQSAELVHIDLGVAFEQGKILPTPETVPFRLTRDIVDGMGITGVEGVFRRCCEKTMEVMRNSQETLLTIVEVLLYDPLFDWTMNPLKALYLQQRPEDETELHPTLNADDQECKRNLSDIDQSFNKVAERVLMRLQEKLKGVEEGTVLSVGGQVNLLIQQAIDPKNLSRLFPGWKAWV

NEK8, construct: aa1-322 (from UniProt Q86SG6)
relative phosphorylation
Details	at +1	at +2	at +3	at +4	at -1	at -2	at -3	at -4	at -5
A fixed	0.671	0.695	0.727	0.752	0.875	0.751	0.814	0.847	0.971
D fixed	0.407	0.332	0.655	0.562	1.08	1.53	0.918	1.68	1.61
E fixed	0.37	0.28	0.459	0.527	1.16	1.09	0.764	1.25	1.09
F fixed	1.97	1.12	1.7	1.11	0.777	0.882	0.995	0.89	1.02
G fixed	0.654	0.656	0.992	0.944	0.602	1.09	0.975	0.936	1.05
H fixed	1	1.01	1.16	0.97	0.967	0.963	1.05	0.983	1.04
I fixed	0.826	0.761	0.74	0.815	0.555	0.679	0.69	0.606	0.658
K fixed	0.933	2.05	1.4	1.81	1.5	0.755	0.799	0.918	1.08
L fixed	1.06	0.845	1.04	0.978	1.11	1.25	1.56	0.792	0.771
M fixed	2.03	0.89	0.95	0.97	1.36	0.959	1.52	0.858	0.76
N fixed	0.945	0.841	1.05	1.02	1.11	1	0.837	1.09	1.06
P fixed	0.239	0.525	0.826	1.32	0.433	0.485	0.878	0.926	1.11
Q fixed	1.33	0.836	0.861	1.12	1.34	0.75	0.924	0.839	0.935
R fixed	1.34	3.13	1.54	1.54	1.72	1.59	1.84	0.966	0.956
V fixed	0.7	0.798	0.628	0.66	0.63	0.625	0.465	0.597	0.712
W fixed	1.29	0.948	1.26	1.03	0.775	1.33	1.05	2.01	1.3
Y fixed	1.24	1.28	1.02	0.86	0.999	1.26	0.924	0.805	0.871
pThr fixed	0.717	0.574	0.612	0.672	0.593	1.01	1.17	1.13	1.4
pTyr fixed	0.64	0.439	0.819	0.583	1.42	1.66	1.3	1.05	1.38

ACVR1, construct: aa175-end (from UniProt Q04771)
relative phosphorylation
Details	at +1	at +2	at +3	at +4	at -1	at -2	at -3	at -4	at -5
A fixed	0.713	0.98	0.912	0.81	0.74	0.525	0.897	0.886	1.13
D fixed	1.5	1.84	1.47	1.69	1.48	1.93	1.51	1.64	1.22
E fixed	4.11	1.99	1.81	1.76	1.68	6.6	1.78	1.44	1.15
F fixed	0.752	0.713	0.962	1.01	0.857	0.467	0.944	0.88	1.08
G fixed	0.737	1.39	0.909	0.972	0.515	0.715	1.22	1.15	1.12
H fixed	0.787	1.15	0.932	0.918	1.04	0.55	1.03	0.953	1.03
I fixed	0.87	0.581	0.762	0.804	0.985	0.511	0.885	0.946	0.896
K fixed	0.382	0.709	0.53	0.676	0.572	0.406	0.651	0.77	0.938
L fixed	0.728	0.616	0.856	0.738	1.35	0.678	0.899	0.958	0.861
M fixed	0.795	0.683	0.97	0.955	1.62	0.89	1.02	0.94	0.964
N fixed	0.771	0.927	1.04	1.01	1	0.714	1.12	0.803	0.948
P fixed	0.375	1.02	1.1	0.976	0.49	0.404	0.937	0.872	0.91
Q fixed	0.726	0.876	0.857	1.01	0.846	0.739	0.775	0.791	0.739
R fixed	0.453	0.868	0.647	0.714	0.673	0.531	0.781	0.769	0.902
V fixed	1.19	0.638	0.847	0.783	0.975	0.462	0.732	0.834	0.954
W fixed	1.04	0.82	1.26	1.26	0.903	0.458	0.864	1.23	1.18
Y fixed	1.07	1.19	1.14	0.927	1.27	0.429	0.972	1.15	0.997
pThr fixed	2.36	1.57	1.05	1.59	1.04	1.8	1.41	1.05	1.06
pTyr fixed	2.25	1.4	1.32	1.25	1.37	0.678	1.37	1.22	1.17

SIK2, construct: Full length (from UniProt Q9H0K1)
relative phosphorylation
Details	at +1	at +2	at +3	at +4	at -1	at -2	at -3	at -4	at -5
A fixed	0.683	0.923	0.762	0.745	0.883	1.45	0.789	0.944	0.972
D fixed	0.42	0.461	1.59	0.353	0.463	0.232	0.255	0.57	0.48
E fixed	0.487	0.486	0.54	0.309	0.388	0.208	0.327	0.599	0.463
F fixed	1.13	0.924	1.51	0.96	0.685	1.5	0.969	0.98	1.2
G fixed	0.622	0.518	0.556	0.631	2.45	0.96	0.658	0.991	0.89
H fixed	1.06	1.1	1.23	0.79	1.03	1.37	1.14	1.02	0.858
I fixed	1.05	0.988	0.821	2.46	0.591	0.561	0.627	0.762	1.09
K fixed	1.18	1.19	0.856	1.11	1.65	1.26	2.14	1.56	1.5
L fixed	1.17	1.15	0.988	2.94	0.929	0.52	0.752	0.828	1.76
M fixed	1.68	0.94	0.916	1.4	1.03	0.664	0.765	1.02	1.17
N fixed	1.03	1.03	2.08	0.635	1	0.583	0.526	0.828	0.757
P fixed	0.336	0.68	0.33	0.578	0.923	0.394	0.788	0.729	0.767
Q fixed	1.61	0.991	0.856	0.602	1.05	0.607	0.634	0.88	0.704
R fixed	1.48	1.7	1.03	0.83	1.77	1.4	3.76	2.09	1.41
V fixed	1	0.965	0.638	1.16	0.641	0.771	0.637	0.857	0.959
W fixed	0.951	1.74	1.19	0.809	0.605	2.67	1.37	1.29	1.04
Y fixed	1.11	1.21	1.12	0.688	0.918	1.85	0.864	1.06	0.967
pThr fixed	0.905	0.696	0.382	0.389	0.467	0.567	0.613	0.787	0.791
pTyr fixed	0.499	0.38	0.573	0.35	0.746	0.54	0.614	0.526	0.71

ATM, construct: Full length (from UniProt Q13315)
relative phosphorylation
Details	at +1	at +2	at +3	at +4	at -1	at -2	at -3	at -4	at -5
A fixed	0.429	0.858	0.748	0.776	0.759	1.18	0.922	0.959	1.1
D fixed	0.42	2.02	1.28	1.27	2.27	1.56	1.26	1.3	1.11
E fixed	0.85	2.16	1.45	1.45	1.62	1.77	1.52	1.5	1.08
F fixed	0.701	0.658	1.5	1.23	1.1	0.868	1.14	1.2	1.4
G fixed	0.361	0.756	0.691	0.922	1.06	0.93	0.848	0.995	0.987
H fixed	0.38	0.918	0.67	0.84	1.09	0.936	0.936	0.912	0.879
I fixed	0.594	0.872	1.03	1.08	0.405	0.685	0.814	0.906	1.06
K fixed	0.384	0.649	0.5	0.499	0.376	0.696	0.681	0.721	0.662
L fixed	0.621	0.77	1.59	1.11	1.56	0.692	0.867	0.96	0.987
M fixed	0.672	0.787	1.26	1.25	1.05	0.85	1.18	0.995	0.971
N fixed	0.748	1.21	0.742	0.791	1.83	1.24	0.842	0.789	0.859
P fixed	0.448	1.1	0.742	0.779	0.412	0.906	0.643	0.819	0.784
Q fixed	8.34	1.1	0.989	0.787	0.731	1.28	0.792	0.733	0.617
R fixed	0.648	0.839	0.545	0.577	0.518	1.13	1.66	0.865	0.894
V fixed	0.521	1.01	0.875	0.873	0.387	0.716	0.671	0.818	1.1
W fixed	0.421	0.514	1.31	1.51	0.525	0.736	1.06	1.27	1.26
Y fixed	0.466	0.798	1.08	1.25	1.31	0.823	1.17	1.25	1.25
pThr fixed	0.577	1.47	0.933	1.49	0.748	1.37	1.15	1.21	0.84
pTyr fixed	0.468	1.85	1.26	2.74	3.86	1.68	1.7	1.23	1.05

Source: the supplement of paper PMC9876800
